Legend:
[1] = Michaelis-Menten kinetic analysis of bL activity with nitrocefin as substrate; format: biochemical
Description: Enzymatic activity assays of the bL portion of L49-sFv-bL were undertaken using nitrocefin as the enzyme substrate (Table 1). […] Thus, both the binding of the L49 antibody and enzymatic activity of the E. cloacae r2-1 bL were preserved in the fusion protein.

[2] = Clearance of conjugate from the blood of nude mice; format: in vivo
Experimental: FIGS. 9A and 9B depict pharmacokinetics of L49-sFv-bL in nude mice (3 animals/group). L49-sFv-bL was injected intravenously, tissues were removed and extracted at the indicated times, and the β-lactamase activity was determined using nitrocefin as a substrate. FIG. 9A depicts clearance of L49-sFv-bL from the blood. Injected dose was 4 mg/kg. FIG. 9B depicts L49-sFv-bL levels in subcutaneous 3677 melanoma tumors and in normal tissues. Injected dose was 1 mg/kg.
Conjugate Localization. Subcutaneous 3677 melanoma tumors were established in female athymic nu/nu mice (8-12 weeks old, Harlan Sprague-Dawley, Indianapolis, Ind.) by transplanting tumors that had been previously passaged as previously described (Kerr et al., Cancer Res., 55:3558-3563 (1995)). Tumor bearing mice were injected i.v. with L49-sFv-bL (1 or 4 mg mAb component/kg) or with L49-Fab'-bL (1.8 mg mAb component/kg). At various time intervals, the mice were anesthetized, bled through the orbital plexus, and sacrificed. Tissues were removed and homogenized in PBS containing 15 μg/ml aprotinin (2 mL/g tissue). To the homogenate was added 50 mM sodium phosphate containing 100 mM NaCl at pH 11.2 (10 ml/g tissue), and the suspension was mixed. After 20 min at room temperature, 3M sodium phosphate at pH 7.0 was added (2 ml/g tissue), and the mixture was mixed and centrifuged.
Quantification of conjugate concentrations was accomplished using a direct enzyme immunoassay. Polystyrene 96-well microtiter plates were coated with an affinity-purified rabbit polyclonal antisera to wild type E. cloacae bL (1 μg/ml), and were then blocked with specimen diluent (Genetic Systems Corp.). Serially diluted tissue extracts or purified samples (L49-sFv-bL as a standard for the fusion protein samples, L49-Fab'-bL as a standard for the L49-Fab'-bL samples) were added to the wells and allowed to bind for 3 h at room temperature. The plates were washed and developed by the addition of 0.1 ml of nitrocefin (O'Callaghan et al., Antimicrobial Agents and Chemotherapy, 1:283-288 (1972)) at 0.1 mM in PBS containing 1% dimethylformamide. Absorbance measurements were read in an ELISA plate reader using a 490 nm filter with 630 nm as the reference wavelength.
In Vivo Localization. Biodistribution studies of L49-sFv-bL and L49-Fab'-bL were carried out in nude mice bearing subcutaneous (s.c.) 3677 melanoma tumor xenografts. The conjugates were injected i.v., and at various time points tissues were removed and extracted under alkaline conditions to disrupt antigen-antibody interactions. The samples were then trapped a polyclonal antiserum to bL, and bL activity was measured using nitrocefin as a colorimetric indicator (O'Callaghan et al, Antimicrobial Agents and Chemotherapy, 1:283-288 (1972)).

[3] = tested on: cell-surface antigens on SK-MEL 28 melanoma cells; test: Fluorescence activated cell sorting competition binding assay against FITC-modified whole L49; set-up: species or system human; details: FACS competition assay
Experimental: FIG. 7 depicts a competition binding assay. 3677 cells were incubated with various combinations of the test samples (L49, L49-sFv-bL, L49-Fab'-bL, and FITC-modified whole L49, keeping the total mAb concentration (test sample+L49-FITC) constant at 400 nM. Fluorescence intensity was determined by fluorescence activated cell sorter analysis.
Competition binding experiments were performed as described by Svensson et al.(Bioconjugate Chem., 3:176-181 (1992)). Immunoassays were performed by coating polystyrene 96 well plates with sp97 (0.1 mL, 2 μg/ml in PBS, overnight, 4° C.) After blocking with specimen diluent (Genetic Systems Corp.) for 1 h at 22° C., the blocking solution was replaced with fresh specimen diluent (0.1 ml) containing serial dilutions of the samples. After 1 h at 22° C. the plates were washed, followed by development with 0.1 mL of a nitrocefin (O'Callaghan et al., Antimicrobial Agents and Chemotherapy, 1:283-288 (1972)) solution (0.1 mM in PBS/1% dimethylformamide, 15 min, 22° C. Absorbance measurements were read in an plate reader using a 490 nm filter with 630 nm as the reference wavelength.
The binding characteristics of the sFv portion of the fusion protein were determined using a fluorescent activated cell sorting competition assay in which fusion protein and FITC-modified whole L49 competed for binding to cell-surface antigens on SK-MEL 28 melanoma cells. […]

p97 antigen = biological target: T1, p97 antigen (Homo sapiens, UniProt P08582); test: Surface plasmon resonance binding to immobilized p97 antigen; details: p97 immobilized on gold surface
T1 sequence (P08582 20-738): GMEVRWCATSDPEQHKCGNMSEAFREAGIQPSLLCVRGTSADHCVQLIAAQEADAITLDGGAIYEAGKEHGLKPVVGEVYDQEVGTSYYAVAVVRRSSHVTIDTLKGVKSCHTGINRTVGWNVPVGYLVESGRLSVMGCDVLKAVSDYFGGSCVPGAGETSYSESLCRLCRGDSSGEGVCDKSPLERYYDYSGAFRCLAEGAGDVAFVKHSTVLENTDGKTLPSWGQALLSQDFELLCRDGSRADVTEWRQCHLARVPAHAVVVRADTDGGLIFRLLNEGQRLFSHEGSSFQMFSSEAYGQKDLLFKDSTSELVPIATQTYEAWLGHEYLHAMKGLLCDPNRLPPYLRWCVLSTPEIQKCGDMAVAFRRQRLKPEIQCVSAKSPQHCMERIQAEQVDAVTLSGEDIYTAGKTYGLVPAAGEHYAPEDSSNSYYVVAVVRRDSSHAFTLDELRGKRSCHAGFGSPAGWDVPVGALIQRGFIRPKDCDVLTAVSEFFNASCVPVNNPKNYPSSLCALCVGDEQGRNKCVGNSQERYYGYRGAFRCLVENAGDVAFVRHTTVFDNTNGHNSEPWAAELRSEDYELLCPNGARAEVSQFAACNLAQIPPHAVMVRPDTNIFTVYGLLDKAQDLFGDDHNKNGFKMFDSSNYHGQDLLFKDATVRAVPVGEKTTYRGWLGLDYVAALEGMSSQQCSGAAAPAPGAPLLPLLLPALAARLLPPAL
Experimental: The binding characteristics of the sFv portion of the fusion protein were determined using a fluorescent activated cell sorting competition assay in which fusion protein and FITC-modified whole L49 competed for binding to cell-surface antigens on SK-MEL 28 melanoma cells. […] More detailed information about binding was obtained using surface plasmon resonance, which allowed the measurement of the on and off rates of L49-sFv-bL binding to the p97 antigen immobilized on a gold surface (Table 1).

B1: L49-sFv-bL: recombinant fusion protein: L49 anti-p97 single-chain Fv (VH-218 linker-VL) fused to r2-1 mutant E. cloacae β-lactamase, SEQ ID NO: 20 (protein)
chain: MKYLLPTAAAGLLLLAAQPAMAEVQLQESGPSLVKPSQTLSLTCSVTGDSITSGYWNWIRKFPGNKLEYMGYISDSGITYYNPSLKSRISITRDTSKNQYYLQLNFVTAEDTATYNCARRTLATYYAMDYWGQGTSVTVSSGSTSGSGKPGSGEGSTKGDFVMTQTPLSLPVSLGDQASISCRASQSLVHSNGNTYLHWYLQKPGQSPKLLIYRVSNRFSGVPDRFSGSGSGTDFTLKISRVEAEDLGVYFCSQSTHVPPTFGGGTKLEIKRTPVSEKQLAEVVANTITPLMKAQSVPGMAVAVIYQGKPHYYTFGKADIAANKPVTPQTLFELGSISKTFTGVLGGDAIARGEISLDDAVTRYWPQLTGKQWQGIRMLDLATYTAGGLPLQVPDEVTDNASLLRFYQNWQPQWKPGTTRLYANASIGLFGALAVKPSGMPYEQAMTTRVLKPLKLDHTWINVPKAEEAHYAWGYRDGKAVRVSPGMLDAQAYGVKTNVQDMANWVMANMAPENVADASLKQGIALAQSRYWRIGSMYQGLGWEMLNWPVEANTVVETSFGNVALAPLPVAEVNPPAPPVKASWVHKTGSTGGFGSYVAFIPEKQIGIVMLANTSYPNPARVEAAYHILEALQTSEFE
[1]
  Km: 19 µM
  enzymatic activity relative to the mutant bL enzyme: retained the full enzymatic activity
  kcat: 232 s⁻¹
[2]; blood, i.v., 4 mg/kg
  initial clearance half life t1/2 α: 0.3 h
  terminal clearance half life t1/2 β: 2.5 h
[2]; i.v., nude mice
  clearance from the blood: cleared very rapidly
[2]; within 24 h of conjugate administration
  reduction of blood levels: 10^4
[3]
  binding to the cell line in competition with FITC-modified whole L49: bound equally well
p97 antigen
  Kd: 1 nM
  koff: 0.00042 s⁻¹

Reference: patent publication US6132722A, “Recombinant antibody-enzyme fusion proteins” (Bristol-Myers Squibb Company, priority 1998, dated 2000)
